Consider nine molecules from patent publication US20100255011A1 (University of Washington, published 2010).

Assay [1] addresses soluble recombinant CD46 (sCD46) (human) (UniProt P15529). Nature of the assay: SPR, Biacore T100; biotinylated knob on streptavidin chip, sCD46 injected.
The target is the same in assay [2]. Nature of the assay: SPR, ratio of KDs.
For assay [3], the target named is CD46 on the surface of human cells (HeLa, Raji, PBMC and others) (human) (UniProt P15529). Nature of the assay: cell-based or functional assay.
Assay [4] deals with T1, CD46 on the surface of human cells (HeLa, Raji, PBMC and others) (human, UniProt P15529 35-376).
T1 sequence: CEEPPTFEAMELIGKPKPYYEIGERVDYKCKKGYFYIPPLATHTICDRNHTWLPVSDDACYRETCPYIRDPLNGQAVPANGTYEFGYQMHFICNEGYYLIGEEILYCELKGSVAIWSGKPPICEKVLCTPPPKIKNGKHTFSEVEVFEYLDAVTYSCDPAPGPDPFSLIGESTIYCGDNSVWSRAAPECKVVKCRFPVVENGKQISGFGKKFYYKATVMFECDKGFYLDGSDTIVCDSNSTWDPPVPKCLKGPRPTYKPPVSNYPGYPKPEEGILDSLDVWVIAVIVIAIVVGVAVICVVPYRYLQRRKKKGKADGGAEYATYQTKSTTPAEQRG
Nature of the assay: cell-based or functional assay.

The target in assay [5] is T2, soluble recombinant CD46 (sCD46) (human, UniProt P15529 35-343).
T2 construct: Soluble form produced as described in Wang et al. 2007; also called soluble CD46
T2 sequence: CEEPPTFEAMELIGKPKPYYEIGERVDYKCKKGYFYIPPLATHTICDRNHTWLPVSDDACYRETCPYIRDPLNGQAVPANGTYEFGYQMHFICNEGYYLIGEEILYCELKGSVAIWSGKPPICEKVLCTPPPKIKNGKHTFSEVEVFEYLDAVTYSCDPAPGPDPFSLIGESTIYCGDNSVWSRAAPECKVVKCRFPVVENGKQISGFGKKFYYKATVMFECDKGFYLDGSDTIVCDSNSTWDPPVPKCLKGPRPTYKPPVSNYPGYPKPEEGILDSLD
Nature of the assay: SPR, Biacore T100; biotinylated knob on streptavidin chip, sCD46 injected.

Assay [6] addresses T2, soluble recombinant CD46 (sCD46). Nature of the assay: SPR, ratio of KDs.

Numbering of substitutions follows the chain as printed.

Take “Ad35 fiber knob mutant Asn217Asp + Thr245Pro + Ile256Leu”: in assay [1], the Kd came out at 4.82 nM, the koff worked out at 0.0097 s⁻¹ and the kon is 2.25e+06 M⁻¹ s⁻¹.

For Ad35 fiber knob mutant Asp207Gly, in assay [1], the Kd is 1.77 nM, the koff is 0.0034 s⁻¹ and the kon came out at 3.51e+06 M⁻¹ s⁻¹. Moreover, the fold higher affinity than the wild-type fiber knob protein in assay [2] worked out at 8.3 fold.

On to “Ad35 fiber knob mutant Asp207Gly + Thr226Ala”, for which, in assay [1], the Kd worked out at 1.41 nM, the koff was 0.0026 s⁻¹ and the kon turned out to be 1.97e+06 M⁻¹ s⁻¹.

“Ad35 fiber knob mutant Asp207Gly + Thr245Ala + Ile256Leu”: in assay [1], the Kd came out at 0.92 nM, the koff amounted to 0.0018 s⁻¹ and the kon came to 1.96e+06 M⁻¹ s⁻¹.

On to Ad35 fiber knob mutant Ile256Leu, for which, in assay [1], the Kd is 11 nM, the koff amounted to 0.0236 s⁻¹ and the kon was found to be 2.13e+06 M⁻¹ s⁻¹. In addition, the fold higher affinity than the wild-type fiber knob protein in assay [2] was 1.3 fold.

For the molecule Ad35 fiber knob mutant Thr245Ala, in assay [1], the Kd was determined as 7.64 nM, the koff was 0.0173 s⁻¹ and the kon is 2.25e+06 M⁻¹ s⁻¹. Moreover, in assay [2], the fold higher affinity than the wild-type fiber knob protein came out at 1.9 fold.

“mouse anti-human CD46 antibody, clone MEM-258 (AbD Serotec)”: in assay [3], the level of CD46 on the surface of HeLa cells (flow cytometry), decline is 30% and the viability of Raji cells with NHS (alone or with daclizumab), decline came out at 30%.

B1: wild-type Ad35 fiber knob protein (other)
chain: HHHHHHGDICIKDSINTLWTGINPPPNCQIVENTNTNDGKLTLVLVKNGGLVNGYVSLVGVSDTVNQMFTQKTANIQLRLYFDSSGNLLTDESDLKIPLKNKSSTATSETVASSKAFMPSTTAYPFNTTTRDSENYIHGICYYMTSYDRSLFPLNISIMLNSRMISSNVAYAIQFEWNLNASESPESNIATLTTSPFFFSYITEDDN
notes: Recombinant, made in E. coli, homotrimer; Biotinylated (EZ-Link Sulfo-NHS-LC-Biotin) for SPR; also called Ad35K; wild-type Ad35K
For the molecule B1, the “killing of Raji cells by rituximab/NHS, increase against rituximab/NHS only” value in assay [4] is approximately 2 fold. Besides, in assay [5], the Kd was found to be 14.6 nM, the koff worked out at 0.0234 s⁻¹ and the kon was 1.52e+06 M⁻¹ s⁻¹.

B2: mutant Ad35 fiber knob protein with Asp207Gly and Thr245Ala substitutions (Ad35K++) (other)
chain: B1 chain with D91G, T129A
notes: Recombinant, E. coli, spontaneously forms trimers; Biotinylated for SPR; also called Asp207Gly + Thr245Ala; Ad35K++ polypeptide
Consider B2, for which, in assay [6], the “fold higher affinity than the wild-type Ad35” value turned out to be 23.2 fold. In assay [4], the “decrease of mean CD46 fluorescence intensity on PBMCs” value amounted to 1.97 fold; the “decrease of mean CD46 fluorescence intensity on Raji cells” value worked out at 7.54 fold; the “fold decrease in GFP expression after Ad35-GFP infection of HeLa cells pre-incubated 72 hours earlier, against Ad35K-279” value was found to be 1000 fold; the “killing of Raji cells by rituximab/NHS, increase against rituximab/NHS only” value is approximately 10 fold. For the same molecule, in assay [5], the Kd stood at 0.63 nM, the koff is 0.0017 s⁻¹ and the kon worked out at 2.48e+06 M⁻¹ s⁻¹.
